The labels stand for the following.
B1: anti-CR-1 antibody Clone 35 (antibody, V domains shown)
VH: QVQLQQSGPGLVKPSQTLSLTCAISGNSVSSNSAAWNWIRRSPSRGLEWLGRTYYRSKWYNDYAVSVKSRITIKPDTSKNQFSLQLNSVTPEDTAMYYCARGFCSGGRCYSFDYWGPGTLVTVSS
VL: QSVLTQPASVSGSPGQSITISCTGTDSDVGAYGSASWYRHSPGKAPQLIIYDVTNRPSGVSNRFYGSKSGNTASLTISGLQAEDEADYYCQAWDSGIHVVFGGGTQLTVL
notes: VH of phage clone 35 from the human scFv phage display library; human IgG heavy-chain constant region (CH1, CH2 and CH3) of the vector pHIgH5zeo; VL of phage clone 35 from the human scFv phage display library; human IgG light-chain constant region (CL) of the vector pHIgL5hyg; Whole human IgG format (VH-CH1-CH2-CH3 and VL-CL); also called anti-CR-1 Ab Clone 35; anti-CR-1 Clone 35 antibody
B2: anti-CR-1 antibody Clone 331 (antibody, V domains shown)
VH: QVQLQQSGPGQVKPSQSLSLICAISGDSVSTSSAAWNWIRQSPSRGFEWLGRTFYRSGWFTDYAASVKSRITINPDTSKNQFSLQLNSVTPEDTAMYYCARIRSGYRFDYWGQGILVAVSS
VL: NFMLTQPPSASGTPGQRVTVSCSGSSSNIGSNFVFWYQHLPGKAPKLLIYRNHQRPSGVPDRFSGSKSGTSASLAISGLRSEDESDYYCQVWDDRNVVFGGGTQLTVL
notes: VH of phage clone 331; human IgG heavy chain constant region CH1-CH2-CH3 from the vector pHIgH5zeo; VL of phage clone 331; human IgG light chain constant region CL from the vector pHIgL5hyg; whole human IgG built from the VH and VL of the scFv phage clone; also called anti-CR-1 Ab; source: ExpiCHO-S, transfected, conditioned medium
B3: anti-CR-1 antibody Clone 212 (antibody, V domains shown)
VH: QVQLQQSGPGLVKPSQTLSLTCGISGDSVSSNSAAWNWIRQSPSRGLEWLGRTYYRSQWYNDYAVSVNSRITINPDTSKNQFSLQLNSVTPEDTAMYYCARTLRTPLADDYYYSGMDAWGQGTTVTVSS
VL: QSVLIQPASVSGSPGQSITISCTGTSSDVGSYNLASWYQHHPGKAPKLMIYEVNNRPSGVSNRFSGSKSGNTASLTISGLQAEDEADYYCQVWDGSGDPHAVFGGGTQLTVL
notes: VH of phage clone 212; human IgG heavy chain constant region CH1-CH2-CH3 from the vector pHIgH5zeo; VL of phage clone 212; human IgG light chain constant region CL from the vector pHIgL5hyg; whole human IgG built from the VH and VL of the scFv phage clone; also called anti-CR-1 Ab; source: ExpiCHO-S, transfected, conditioned medium
B4: anti-CR-1 antibody Clone 292 (antibody, V domains shown)
VH: QVQLQQSGPGLVKPSQTLPLTCAIYGDSVSSNSAAWNWIRQSPSRGLEWLGRTYYRSKWYNDYAVSVQSRITINPDTSKNQFSLQLNSVTPEDTAMYYCAKGKLSLEVITTRGWDWGQGTLVTVSS
VL: QSVLTQPRSVSGSPGQSVTISCTGTRADVGTYHYVSWYQRHPGKAPKLIIYDVSKRPSGVPDRFSGSKSGNTASLTVSGLQAEDEADYYCQSADSSGTYVIFGGGTQLTVL
notes: VH of phage clone 292; human IgG heavy chain constant region CH1-CH2-CH3 from the vector pHIgH5zeo; VL of phage clone 292; human IgG light chain constant region CL from the vector pHIgL5hyg; whole human IgG built from the VH and VL of the scFv phage clone; also called anti-CR-1 Ab; source: ExpiCHO-S, transfected, conditioned medium
B5: anti-CR-1 antibody Clone 226 (antibody, V domains shown)
VH: QVQLQQSGPGLVKPSQTLSLTCAISGDSVSSNSAAWNWIRQSPSRGLEWLGRTYYRSKWYNDYAVSVKSRITINPDTSKNQFSLQLNSVTPEDTAVYYCTPTPTWWPVRWGQGTLVTVSS
VL: QSALTQPRSVSGSPGQSVTISCTGTSGDVGYYDHVSWYQQHPGKAPKLFIYDVTKRPSGVPDRFSASKSGNTASLTISRLQAEDEAEYHCLTWGNSAVFGGGTQLTVL
notes: VH of phage clone 226; human IgG heavy chain constant region CH1-CH2-CH3 from the vector pHIgH5zeo; VL of phage clone 226; human IgG light chain constant region CL from the vector pHIgL5hyg; whole human IgG built from the VH and VL of the scFv phage clone; also called anti-CR-1 Ab; source: ExpiCHO-S, transfected, conditioned medium
B6: anti-CR-1 antibody Clone 35 (antibody, V domains shown)
VH: B1 VH
VL: B1 VL
notes: VH of phage clone 35; human IgG heavy chain constant region CH1-CH2-CH3 from the vector pHIgH5zeo; VL of phage clone 35; human IgG light chain constant region CL from the vector pHIgL5hyg; whole human IgG built from the VH and VL of the scFv phage clone; also called anti-CR-1 Ab Clone 35; anti-CR-1 Ab; source: ExpiCHO-S, transfected, conditioned medium; also purified (HiTrap protein A)
B7: anti-CR-1 antibody Clone 242 (antibody, V domains shown)
VH: QVQLVESGGGLVQPGGSLRLSCAASGFTFSNKPMSWVRQAPGKGLEWLSAISGSGVYAYFADSAKGRFTISRDNSKNTPYLQMNSLRAEDTAMYYCARQHITMLPGWFDPWGQGTLVTVSS
VL: QSVLTQPPSASGSPGQSVTISCTGSSSDVGGYNYVSWYQQHPGKAPKLMIYEVSKRPSGVPDRFSGSKSGNTASLTVSGLQAEDEAEYHCATWDNSLSSWVFGRGTQLTVL
notes: VH of phage clone 242; human IgG heavy chain constant region CH1-CH2-CH3 from the vector pHIgH5zeo; VL of phage clone 242; human IgG light chain constant region CL from the vector pHIgL5hyg; whole human IgG built from the VH and VL of the scFv phage clone; also called anti-CR-1 Ab; source: ExpiCHO-S, transfected, conditioned medium
B8: anti-CR-1 antibody Clone 90 (antibody, V domains shown)
VH: QVQLQQSGPGLVKPSQTLSLTCAISGDSVSSNSAAWNWIRQSPSRGLEWLGRTYYRSKWYNDYAVSVKSRITIKPDTSKNQFSLQLYSVTPEDTAMYYCARDSYGMDVWGQGTTATVSS
VL: NFMLTQPPSASGTPGQRVSISCSGSSSNIGSSSVYWCRQLPGTAPKLLIYDVTNRPSGVPDRFSASKSGTSASLAISGLRSEDESDYYCVLYMGSGISVFGGGTKVTVL
notes: VH of phage clone 90; human IgG heavy chain constant region CH1-CH2-CH3 from the vector pHIgH5zeo; VL of phage clone 90; human IgG light chain constant region CL from the vector pHIgL5hyg; whole human IgG built from the VH and VL of the scFv phage clone; also called anti-CR-1 Ab; source: ExpiCHO-S, transfected, conditioned medium
B9: anti-CR-1 antibody Clone 224 (antibody, V domains shown)
VH: QVQLQQSGPGLVKPSQTLSLTCAISGDSVSSNSATWNWIRQSPSRGLEWLGRTYYKSKWYNEYAVSVKSRITINPDTSKNQFSLQLDSVTPEDTAMYYCATDRYYARDYWGRGTLVTVSS
VL: QSVLIQPRSVSGSPGQSVTISCTGTSGDVGYYDHVSWYQQHPGKAPKIMIYDVTQRPSGVPDRFSGSRSGNTASLTISGLQADDESDYYCVLYLGNGIWVFGGGTQLTVL
notes: VH of phage clone 224; human IgG heavy chain constant region CH1-CH2-CH3 from the vector pHIgH5zeo; VL of phage clone 224; human IgG light chain constant region CL from the vector pHIgL5hyg; whole human IgG built from the VH and VL of the scFv phage clone; also called anti-CR-1 Ab; source: ExpiCHO-S, transfected, conditioned medium

T1 sequence (P13385 31-150): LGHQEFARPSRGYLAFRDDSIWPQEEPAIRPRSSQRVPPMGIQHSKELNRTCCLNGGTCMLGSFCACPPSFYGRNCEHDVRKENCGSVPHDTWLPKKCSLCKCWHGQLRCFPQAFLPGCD

One test addresses T1, recombinant soluble human CR-1 protein (rshCR-1) (Homo sapiens, UniProt P13385).
T1 construct: Cripto-1 (CR-1), human, recombinant soluble form; also called rhsCR-1; recombinant Cripto-1
Description: BLI; Octet; rshCR-1 (2 ng/mL) fixed to amine reactive biosensor; purified antibody 25-200 nM; global fitting, steady state analysis section. The conditions noted are these: both partners purified.
As usually defined, the koff is the rate constant with which the complex falls apart. B1: the dissociation rate constant (koff) worked out at 0.0114 s⁻¹.

For the next test, the target named is T2, recombinant soluble human CR-1 protein (Homo sapiens, UniProt P13385).
T2 construct: Cripto-1 (CR-1), human, recombinant soluble form; also called rshCR-1; rhsCR-1
T2 sequence (P13385 31-150): as above
Briefly: BLI; Octet RED96; rshCR-1 immobilised on Amine Reactive (AR2G) biosensor; anti-CR-1 Abs in ExpiCHO-S conditioned medium as analyte. The conditions noted are these: one partner purified.
On to B2, for which the koff was found to be 0.0181 s⁻¹.

For B3, the koff was 0.0209 s⁻¹.

With B4, the off-rate constant (koff) is 0.0207 s⁻¹.

For the molecule B5, the off-rate (koff) came out at 0.0194 s⁻¹.

Regarding B6, the koff stood at 0.0186 s⁻¹.

B7: the koff worked out at 0.0187 s⁻¹.

For the molecule B8, the off-rate constant (koff) came to 0.0196 s⁻¹.

Take B9: the koff was determined as 0.0191 s⁻¹.

In another test the target is Cripto-1 (CR-1) in CR-1 overexpressing human cancer cell lines and cancer tissues (Homo sapiens, UniProt P13385). Briefly: cell-based or functional assay.
Sequence of Cripto-1 (CR-1) in CR-1 overexpressing human cancer cell lines and cancer tissues (P13385 31-150): as above
Conditions: not given
On to B1, for which the “growth inhibition of GEO cells overexpressing CR-1 (MTT, 72 h), antibody 2.1–136 µg/mL (14–900 nM); IC50” value is roughly 110 nM.

Source of the values: publication PMC7915030, “A Novel Artificially Humanized Anti-Cripto-1 Antibody Suppressing Cancer Cell Growth” (International Journal of Molecular Sciences, 2021).
